Patent US20230348578A1, “CONFORMATION-SPECIFIC ANTIBODIES THAT BIND TAU PROTEIN AND USES THEREOF” (Beth Israel Deaconess Medical Center, Inc., priority 2020, published 2023)
Numbering of substitutions follows the chain as printed.

B1: HT18: humanized cis-pThr231-tau mAb; heavy chain variable domain SEQ ID NO: 29, light chain variable domain SEQ ID NO: 20 (antibody, V domains shown)
VH: QVQLVQSGAEVKKPGSSVKVSCKASGYTFTSYWIHWVRQAPGQGLEWMGVIDPSDSYTRYNQKFKGRVTITRDTSMSTAYTELSSLRSEDTAVYYCTTWEVDYWGQGTLVTVSS
VL: DIQMTQSPSTLSASVGDRVTITCRSSQSLVHSDGNTYLHWYQQKPGKAPKLLIYKVSNRFSGVPSRFSGSGSGTEFTLTISSLQPDDFATYYCSQSTHVPWTFGQGTKLEIK
B2: HT1: humanized cis-pThr231-tau mAb; heavy chain variable domain SEQ ID NO: 25, light chain variable domain SEQ ID NO: 16 (antibody, V domains shown)
VH: QVQLVQSGAELKKPGASVKMSCKASGYTFTSYWIHWVKQRPGQGLEWIGVIDPSDSYTRYNQKFKGRATLTVDTSASTAYMQLSSLTSEDSAVYYCTTWEVDYWGQGTTVTVSS
VL: DVVMTQSPLSLPVTLGQPASISCRSSQSLVHSDGNTYLHWYLQKPGQSPQLLIYKVSNRFSGVPDRFSGSGSGTDFTLKISRVEAEDVGVYFCSQSTHVPWTFGGGTKVEIK
B3: HT3: humanized cis-pThr231-tau mAb; heavy chain variable domain SEQ ID NO: 27, light chain variable domain SEQ ID NO: 16 (antibody, V domains shown)
VH: B1 VH with S16A, A40R, M48I, I70L, R72V, M76A, T81M
VL: B2 VL
B4: HT8: humanized cis-pThr231-tau mAb; heavy chain variable domain SEQ ID NO: 28, light chain variable domain SEQ ID NO: 18 (antibody, V domains shown)
VH: B1 VH with S16A, A40R, M48I, M76A, T81M
VL: B2 VL with F60D
B5: HT2: humanized cis-pThr231-tau mAb; heavy chain variable domain SEQ ID NO: 26, light chain variable domain SEQ ID NO: 16 (antibody, V domains shown)
VH: B2 VH with L11V, Q82E, T87R, S91T, T109L
VL: B2 VL
B6: HT10: humanized cis-pThr231-tau mAb; heavy chain variable domain SEQ ID NO: 26, light chain variable domain SEQ ID NO: 19 (antibody, V domains shown)
VH: B2 VH with L11V, Q82E, T87R, S91T, T109L
VL: B2 VL with F92Y

Target: cis pT231-tau (P-tau peptide, pure cis or cis-locked)
Assay: Biacore assay of binding affinity of humanized cis mAb variants
Conditions: not given
Description: We next started to characterize and select lead humanized mAbs. We expressed and purified humanized mAb variants using a CHO expression system. We transfected over 45 plasmid DNA pairs of heavy and light chain cDNAs into CHO cells to express over 225 humanized cis mAb variants in various combinations. To evaluate the target binding specificity and affinity of our mouse mAbs, we established a simple and quantitative ELISA to screen the clones using a wild-type P-tau peptide and its pure cis or cis-locked, and pure trans counterparts and determined the binding affinity for selected clones using Biacore assays. We screened over 200 humanized cis mAb variants. […] Furthermore, one-tenth of humanized cis mAb variants were also able to recognize cis P-tau in human AD and TBI brains based on immunostaining analysis.
(§1) The binding affinity of selected humanized antibody clones was determined by Biacore assay using a wild-type P-tau peptide and its pure cis or cis-locked, and pure trans counterparts. The […] of the selected humanized cis mAb variants was determined by assessing their ability to eliminate cis P-tau in stressed neurons in cell cultures. Functional restoration of selected clones was determined by their ability to restore risk-taking behavior after 3-hit or 7-hit repetitive TBI in mice, as assayed by elevated plus maze.

Row | Molecule | Kd [nM]
1 | B1 | 1.91
2 | B2 | 1.83
3 | B3 | 3.51
4 | B4 | 7.68
5 | B5 | 1.62
6 | B6 | 1.77

Target: T1, cis P-tau (Homo sapiens, UniProt P10636)
T1 sequence (P10636 1-441 isoform P10636-8): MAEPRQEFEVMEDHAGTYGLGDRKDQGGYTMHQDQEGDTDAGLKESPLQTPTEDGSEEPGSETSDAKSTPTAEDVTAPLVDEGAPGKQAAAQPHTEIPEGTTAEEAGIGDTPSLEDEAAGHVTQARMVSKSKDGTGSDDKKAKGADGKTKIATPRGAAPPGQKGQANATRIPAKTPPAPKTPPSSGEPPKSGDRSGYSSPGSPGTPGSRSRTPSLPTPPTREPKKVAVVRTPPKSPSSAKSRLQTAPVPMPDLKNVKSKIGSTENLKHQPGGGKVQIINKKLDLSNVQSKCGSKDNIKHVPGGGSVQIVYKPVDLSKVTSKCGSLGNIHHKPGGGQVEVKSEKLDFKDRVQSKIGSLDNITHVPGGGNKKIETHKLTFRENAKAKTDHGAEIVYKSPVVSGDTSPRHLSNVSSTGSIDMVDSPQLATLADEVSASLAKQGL
Assay: Elimination of cis P-tau in cultured neurons stressed by hypoxia
Type: cell-based
Set-up: endogenous in cells
Conditions: 2.5 μg/ml, 5 μg/ml and 10 μg/ml
Procedure: as §1
Cultured neurons were subjected to neuron stress by hypoxia in the presence or absence of different concentration of humanized antibody variants, followed by immunoblotting analysis to analyze cis P-tau levels in the stressed neurons, the results of which are provided in FIGS. 2-4. FIG. 2 is an immunostaining image showing the ability of humanized cis pT231-tau monoclonal antibody variants to eliminate cis P-tau in neurons under hypoxic conditions. Cis P-tau levels are reported in red and blue reports nuclear staining (Hoechst) to represent all neurons in the experiment. […] Cis P-tau levels are reported in red and blue reports nuclear staining (Hoechst) to represent all neurons in the experiment. […] IgG is a negative control. The cis-pTau monoclonal antibody C113 serves as a positive control.

Row | Molecule | elimination of cis P-tau in neurons under hypoxic conditions (images) | rank in cis P-tau elimination assay (FIG. 4)
7 | B1 | elimination of cis P-tau | top four performing variants
8 | B2 | elimination of cis P-tau | –
9 | B3 | elimination of cis P-tau | –
10 | B4 | elimination of cis P-tau | top four performing variants
11 | B5 | elimination of cis P-tau | top four performing variants
12 | B6 | elimination of cis P-tau | top four performing variants

Test system: mice (C57/BL6) after 7-hit repetitive TBI
Assay: 7-hit repetitive mild TBI in mice, elevated plus maze
Type: in vivo
Conditions: risk-taking behavior, HT13 chimera control = 1.0
Procedure: as §1
(§2) An initial sign of brain dysfunction following traumatic brain injury (TBI) is an increase in risk-taking behavior. To determine the therapeutic effect of the herein described cis pT231-tau monoclonal antibodies in restoring brain function 11-week old mice (C57/BL6) mice were subjected to elevated plus maze behavioral assays designed to evaluate risk-taking behavior following repetitive mild TBIs. The behavioral assays were performed as previously described in Walf, Nature Protocols 2(2): 322-328, 2007 (FIG. 7). […] All other mice sustained mild TBI (rmTB) either three times, once a day for three consecutive days, or seven times once a day for five consecutive days and two consecutive times on days 8 and 9. In the 3-hit TBI experiment (FIG. 8A), nine groups of mice received three doses (250 ug/mouse) via intraperitoneal injection of either IgG control (n=10 mice) or one of the following humanized cis pT231-tau monoclonal antibody variants C113 (n=5 mice), HT1 (n=10 mice), HT2 (n=10), HT3 (n=10), HT8 (n=5), HT10 (n=10), HT13 (n=15), HT18 (n=4). Treatment with IgG or humanized cis-pT231-tau monoclonal antibody was administered on Days 1, 2 and 7. Behavioral evaluation was performed on Day 13. In the 7-hit TBI experiment (FIG. 8B), one group sustained TBI only (n=10 mice). The other groups received 8 doses (250 ug/mouse) via intraperitoneal injection of either IgG control (n=10 mice) or one of the following humanized cis pT231-tau monoclonal antibody variants C113 (n=10 mice), HT2 (n=10), HT3 (n=10), HT8 (n=10), HT10 (n=10), HT13 (n=10), HT18/HC2 (n=10). Treatment with IgG or humanized cis-pT231-tau monoclonal antibody was administered on Days 1, 2, 3, 5, 8, 10, 13 and 20. Behavioral evaluation was performed on Day 27. The elevated plus maze was used to assess anxiety/risk-taking behavior and carried out as described in Kondo et al, Nature 523, 431-436, 2015. Briefly, the elevated plus maze consists of two white open arms (30×5 cm) and two white closed arms of the same size with 15-cm-high walls, extended out opposite from each other from a central platform (decision zone) to create a plus shape. The entire apparatus is raised 38 cm above the floor (Lafayette Instruments). Mice are placed on the center platform of the maze, facing a closed arm, and allowed to explore the apparatus for 5 min. The maze is cleaned between subjects with a weak ethanol solution and dried. A computer-assisted video tracking system (Noldus Ethovision) recorded the total time spent in the center platform (decision zone), and the two closed or ‘safe’ arms and the two open or ‘aversive’ arms. Mice with lower levels of anxiety/risk-taking behavior spend less time in the open arms.

Row | Molecule | Functional restoration 7-hit TBI
13 | B1 | 1.1
14 | B3 | 2.0
15 | B4 | 1.4
16 | B5 | 1.7
17 | B6 | 1.3

Test system: BCAS (bilateral common carotid artery stenosis) mice
Assay: 3 month treatment of BCAS mice with humanized cis mAbs (Y maze, NOR, Barnes maze)
Type: in vivo
Conditions: 1 month after BCAS surgery
Procedure: BCAS mice were treated with novel humanized cis mAbs (HT10 and HT18), murine cis mAb C113 (as described in, e.g., U.S. Pat. No. 9,688,747, positive control), mouse-human chimeric HT13 (positive control), or IgG (negative control). Behavioral changes were assay by Y-maze and novel object recognition (NOR) at 1 month after BCAS (FIG. 92A); by Y-maze and NOR at 3 months after BCAS (FIG. 92B); and by Barnes maze at 3 months after BCAS (FIG. 92C). *, p<0.05; **, p<0.01; ***, p<0.001; ****, p<0.0001.
As described above in Examples 1-4, we developed 225 humanized cis P-tau mAb variants and identified 10 top fully humanized cis mAb variants (HT1-4, HT6-10 and HT18) with the expected specificity and potency. […] In this experiment, we performed a 3 month treatment of BCAS (bilateral common carotid artery stenosis) mice with two humanized cis mAb variants, HT10 and HT18, along with murine cis mAb C113 (as described in, e.g., U.S. Pat. No. 9,688,747) and mouse-human chimeric HT13 as positive controls.

Row | Molecule | VCID-like behavioral changes
18 | B1 | effective in preventing VCID-like behavioral changes
19 | B6 | effective in preventing VCID-like behavioral changes

Same assay, conditions: 3 months after BCAS surgery, Barnes maze

Row | Molecule | VCID-like behavioral changes
20 | B1 | effective in preventing VCID-like behavioral changes
21 | B6 | effective in preventing VCID-like behavioral changes

Target: T1, cis P-tau
Assay: Immunoblotting of CSF of live TBI patients
Type: binding
Set-up: The recognition of cis P-tau in the CSF of live TBI patients; from tissue; host or cells: cerebrospinal fluid of live traumatic brain injury patients
Conditions: relative to control CSF samples
Description: CSF pT231-tau is an early biomarker of traumatic brain injury (TBI). The recognition of cis P-tau in the CSF of live TBI patients by the humanized cis pT231-tau monoclonal antibody variants evaluated immunoblotting analyses using different humanized antibody variants.

Row | Molecule | detection of cis P-tau in CSF of live TBI patients
22 | B1 | robust detection of cis P-tau as early as three days after TBI
23 | B4 | robust detection of cis P-tau as early as three days after TBI
24 | B6 | robust detection of cis P-tau as early as three days after TBI

Test system: mice (C57/BL6) after 3-hit repetitive TBI
Assay: 3-hit repetitive mild TBI in mice, elevated plus maze
Type: in vivo
Conditions: risk-taking behavior, HT13 chimera control = 1.0
Procedure: as §1, §2

Row | Molecule | Functional restoration 3-hit TBI
25 | B1 | 1.0
26 | B2 | 1.5
27 | B3 | 1.7
28 | B5 | 1.4
29 | B6 | 1.2
